# B1: Early protein (Human adenovirus C serotype 5 (HAdV-5)), P03255-2 (parent)
# chain: MRHIICHGGVITEEMAASLLDQLIEEVLADNLPPPSHFEPPTLHELYDLDVTAPEDPNEEAVSQIFPDSVMLAVQEGIDLLTFPPAPGSPEPPHLSRQPEQPEQRALGPVSMPNLVPEVIDLTCHEAGFPPSDDEDEEGPVSEPEPEPEPEPEPARPTRRPKMAPAILRRPTSPVSRECNSSTDSCDSGPSNTPPEIHPVVPLCPIKPVAVRVGGRRQAVECIEDLLNEPGQPLDLSCKRPRP
# B2: Early protein (Human adenovirus C serotype 5 (HAdV-5)), P03255-2 (parent)
# chain: B1 chain
# partner: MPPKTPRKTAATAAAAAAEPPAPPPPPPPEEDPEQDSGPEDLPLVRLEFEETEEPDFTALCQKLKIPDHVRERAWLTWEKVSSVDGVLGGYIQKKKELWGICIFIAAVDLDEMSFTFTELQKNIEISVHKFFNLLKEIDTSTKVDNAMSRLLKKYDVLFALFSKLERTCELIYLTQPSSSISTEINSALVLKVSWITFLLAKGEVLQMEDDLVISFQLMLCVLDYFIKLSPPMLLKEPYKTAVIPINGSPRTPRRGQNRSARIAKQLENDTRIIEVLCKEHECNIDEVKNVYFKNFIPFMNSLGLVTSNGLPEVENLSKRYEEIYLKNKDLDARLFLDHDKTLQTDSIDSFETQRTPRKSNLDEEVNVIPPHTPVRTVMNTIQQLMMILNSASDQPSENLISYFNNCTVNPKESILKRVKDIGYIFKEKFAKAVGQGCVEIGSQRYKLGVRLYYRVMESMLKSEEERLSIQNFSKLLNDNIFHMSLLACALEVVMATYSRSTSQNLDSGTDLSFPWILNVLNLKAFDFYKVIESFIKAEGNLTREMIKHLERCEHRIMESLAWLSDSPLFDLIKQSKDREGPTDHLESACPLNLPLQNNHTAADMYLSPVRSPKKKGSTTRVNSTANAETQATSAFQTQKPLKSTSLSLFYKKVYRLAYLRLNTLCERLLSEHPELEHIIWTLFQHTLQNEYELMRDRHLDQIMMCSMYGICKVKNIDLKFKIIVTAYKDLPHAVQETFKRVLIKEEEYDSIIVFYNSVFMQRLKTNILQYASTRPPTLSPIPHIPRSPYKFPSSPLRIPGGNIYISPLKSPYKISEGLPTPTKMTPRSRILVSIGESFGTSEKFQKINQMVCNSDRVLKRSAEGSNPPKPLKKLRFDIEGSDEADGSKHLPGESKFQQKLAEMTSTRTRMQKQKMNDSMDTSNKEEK
# Variants of: B1
# Details: with ep300_human EP300, Q09472
# Sequence of ep300_human EP300, Q09472 (Q09472 whole entry): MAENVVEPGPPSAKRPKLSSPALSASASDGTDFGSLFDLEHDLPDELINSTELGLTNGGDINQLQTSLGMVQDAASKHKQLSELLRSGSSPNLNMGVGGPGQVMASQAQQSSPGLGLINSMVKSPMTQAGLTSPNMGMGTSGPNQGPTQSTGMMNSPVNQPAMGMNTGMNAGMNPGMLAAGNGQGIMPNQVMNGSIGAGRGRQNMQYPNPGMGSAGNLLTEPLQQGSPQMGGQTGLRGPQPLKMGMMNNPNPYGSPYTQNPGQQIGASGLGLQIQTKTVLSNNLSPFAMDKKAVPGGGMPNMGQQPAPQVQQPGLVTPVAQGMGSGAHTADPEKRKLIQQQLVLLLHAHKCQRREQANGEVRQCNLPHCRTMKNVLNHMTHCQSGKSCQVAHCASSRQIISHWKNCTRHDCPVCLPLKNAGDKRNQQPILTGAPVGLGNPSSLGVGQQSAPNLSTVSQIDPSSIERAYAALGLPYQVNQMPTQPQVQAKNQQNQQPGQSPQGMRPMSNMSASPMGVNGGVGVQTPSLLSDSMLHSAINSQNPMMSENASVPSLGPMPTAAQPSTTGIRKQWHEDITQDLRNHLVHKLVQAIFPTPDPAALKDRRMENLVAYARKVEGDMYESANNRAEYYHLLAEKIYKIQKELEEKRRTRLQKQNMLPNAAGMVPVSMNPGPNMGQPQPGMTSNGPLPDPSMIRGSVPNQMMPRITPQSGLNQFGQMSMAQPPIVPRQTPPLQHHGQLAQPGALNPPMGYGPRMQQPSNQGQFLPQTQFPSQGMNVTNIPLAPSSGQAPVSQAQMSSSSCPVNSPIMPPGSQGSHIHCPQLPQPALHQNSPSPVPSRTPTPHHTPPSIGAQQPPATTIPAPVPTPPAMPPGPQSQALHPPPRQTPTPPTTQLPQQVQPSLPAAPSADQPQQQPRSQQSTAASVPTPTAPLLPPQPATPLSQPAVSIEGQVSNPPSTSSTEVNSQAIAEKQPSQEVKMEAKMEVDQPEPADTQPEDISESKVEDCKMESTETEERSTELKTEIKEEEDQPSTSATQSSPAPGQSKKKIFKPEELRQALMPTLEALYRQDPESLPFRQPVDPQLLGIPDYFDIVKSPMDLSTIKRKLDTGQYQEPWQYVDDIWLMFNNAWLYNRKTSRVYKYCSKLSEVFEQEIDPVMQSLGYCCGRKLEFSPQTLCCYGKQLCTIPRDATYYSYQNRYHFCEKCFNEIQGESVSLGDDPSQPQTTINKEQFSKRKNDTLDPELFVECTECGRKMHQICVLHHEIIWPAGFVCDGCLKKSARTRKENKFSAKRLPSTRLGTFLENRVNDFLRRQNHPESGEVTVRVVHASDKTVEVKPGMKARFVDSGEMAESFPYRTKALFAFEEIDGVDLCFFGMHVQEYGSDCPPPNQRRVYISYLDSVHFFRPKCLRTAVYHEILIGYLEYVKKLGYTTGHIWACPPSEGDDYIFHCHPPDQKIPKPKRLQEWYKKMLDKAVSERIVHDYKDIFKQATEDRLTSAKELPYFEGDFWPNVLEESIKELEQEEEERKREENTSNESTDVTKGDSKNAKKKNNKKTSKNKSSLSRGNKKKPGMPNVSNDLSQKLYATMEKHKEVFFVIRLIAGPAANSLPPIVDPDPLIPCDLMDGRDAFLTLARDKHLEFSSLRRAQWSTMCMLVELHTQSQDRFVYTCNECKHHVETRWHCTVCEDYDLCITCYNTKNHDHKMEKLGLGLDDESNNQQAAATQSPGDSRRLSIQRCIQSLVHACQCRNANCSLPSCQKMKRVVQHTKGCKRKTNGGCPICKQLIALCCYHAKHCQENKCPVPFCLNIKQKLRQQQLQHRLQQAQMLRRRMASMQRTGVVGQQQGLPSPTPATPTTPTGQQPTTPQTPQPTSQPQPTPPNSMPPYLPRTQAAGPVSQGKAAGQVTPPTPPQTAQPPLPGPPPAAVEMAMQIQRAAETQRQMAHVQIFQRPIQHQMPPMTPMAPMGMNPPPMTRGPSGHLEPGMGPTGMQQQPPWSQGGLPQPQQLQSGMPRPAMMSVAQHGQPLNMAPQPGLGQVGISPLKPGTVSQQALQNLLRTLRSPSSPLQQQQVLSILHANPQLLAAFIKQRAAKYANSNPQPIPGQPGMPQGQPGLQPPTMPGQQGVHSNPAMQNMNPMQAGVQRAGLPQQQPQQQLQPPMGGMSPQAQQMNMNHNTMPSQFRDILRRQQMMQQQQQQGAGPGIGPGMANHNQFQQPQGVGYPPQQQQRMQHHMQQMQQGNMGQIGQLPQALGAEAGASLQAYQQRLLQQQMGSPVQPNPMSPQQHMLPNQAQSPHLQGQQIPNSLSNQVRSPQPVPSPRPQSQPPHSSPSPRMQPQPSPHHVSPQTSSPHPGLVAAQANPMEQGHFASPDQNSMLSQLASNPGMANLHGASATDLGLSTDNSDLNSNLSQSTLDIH
row,Variant,effect of a mutation on the interaction
1,R2G,disrupting interaction

# Variants of: B1
# Details: with stat1_human STAT1, P42224
# Sequence of stat1_human STAT1, P42224 (P42224 whole entry): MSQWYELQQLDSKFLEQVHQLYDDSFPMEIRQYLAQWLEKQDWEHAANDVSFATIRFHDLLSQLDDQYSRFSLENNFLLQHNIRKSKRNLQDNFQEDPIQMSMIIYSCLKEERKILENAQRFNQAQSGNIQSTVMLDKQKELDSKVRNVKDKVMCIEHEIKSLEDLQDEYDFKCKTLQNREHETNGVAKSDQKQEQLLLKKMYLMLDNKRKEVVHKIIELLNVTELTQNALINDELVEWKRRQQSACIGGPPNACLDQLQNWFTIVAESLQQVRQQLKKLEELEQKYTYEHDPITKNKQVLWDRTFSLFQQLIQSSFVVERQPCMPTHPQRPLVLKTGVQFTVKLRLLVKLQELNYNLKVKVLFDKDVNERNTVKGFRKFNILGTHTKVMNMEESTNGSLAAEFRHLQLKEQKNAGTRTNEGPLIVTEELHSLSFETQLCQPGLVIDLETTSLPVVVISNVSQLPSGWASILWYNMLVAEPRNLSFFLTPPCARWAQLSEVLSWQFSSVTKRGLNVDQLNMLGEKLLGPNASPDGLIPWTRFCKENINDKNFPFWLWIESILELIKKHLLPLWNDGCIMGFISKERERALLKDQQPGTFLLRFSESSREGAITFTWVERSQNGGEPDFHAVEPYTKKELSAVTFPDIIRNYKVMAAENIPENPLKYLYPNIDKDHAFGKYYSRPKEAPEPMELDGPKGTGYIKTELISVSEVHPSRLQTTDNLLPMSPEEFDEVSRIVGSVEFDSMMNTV
row,Variant,effect of a mutation on the interaction
1,R2G,decreasing interaction

# Variants of: B2
# Details: with rb_human RB1, P06400
row,Variant,effect of a mutation on the interaction
1,R2G,decreasing interaction
